These results are taken from article PMC8407082, “An Integrative Approach to Determine 3D Protein Structures Using Sparse Paramagnetic NMR Data and Physical Modeling” (Frontiers in Molecular Biosciences, 2021).

The experiment has as its target T1, calmodulin (UniProt P0DP23 1-149).
T1 construct: calmodulin, printed as 148 residues long; 13C/15N-labelled; The MELD model has 149 residues (with the extension C149); also called CaM; source: expressed in M9 minimal medium with 15NH4Cl and 13C6-glucose, purified as described previously (Liu and Vogel, 2012; Ishida et al., 2016)
In words: solution NMR (backbone chemical shifts, PRE, RDC) with MELD modelling of the complex's structure; 600 MHz; 1.2-fold excess of peptide mixed with CaM; RDCs in 2 mM bis-Tris pH 7.0, 300 mM KCl, 16 mg/ml Pf1 bacteriophage. As to conditions: both partners purified.

B1: smooth muscle myosin light chain kinase peptide (peptide)
peptide: PARRKWQKTGHAVRAIGRLSS
notes: proline left from the Asp-Pro acid cleavage site of the linker GGGGSSDP; Made unlabelled (LB) or 13C/15N-labelled (M9); The N-terminal proline is not seen in the NMR experiments and was left out of the MELD model; also called smMLCK peptide; smMLCKp; not shown: 6xHis, N-terminal, cleaved; KSI (D38A), N-terminal, cleaved
With B1, the binding result is recorded as “binds”.
